What was measured:
BSA = molecular target: T1, BSA (UniProt P02769 25-607); assay: SPR (BIAcore 3000), BSA-coated surface
T1 construct: also called BSA-coated surface
From the text: Using SPR we determined the strength of the interaction between MAp44 and MBL, and compared it to that of MASP-3 and MBL. The purity of the rMBL has been reported before and the rMAp44 and rMASP-3 preparations were deemed pure by silver staining of SDS-PAGE gels (FIG. 4A). MBL was coupled to SPR chips at two different densities. An SPR chip, activated and blocked, was used for subtraction of the bulk refractive index background. A BSA-coated surface served as an extra background control, which gave no higher signal than the blank surface for both MASP-3 and MAp44. […] The measurements at the other coupling density of MBL were in agreement for both MASP-3 and MAp44. The calculated KDs were similar to the 0.8 nM reported for the binding of MASP-2 to MBL.
The SPR experiments were similar to those reported (7, 8). Using a BIAcore 3000 instrument (GE Healthcare®), binding of either rMASP-3 or rMAp44 was measured on 10940 RU of rMBL immobilized on a CM5 sensor chip (30 μg rMBL/ml used for derivatization), at a flow rate of 5 μl/min. Equivalent volumes of rMASP-3 and rMAp44 were injected at concentrations from 1 nM to 30 nM. Data were analyzed by global fitting to a 1:1 Langmuir binding model for several concentrations simultaneously using the BIAevaluation 4.1 software (GE Healthcare®).

[1] = molecular target: T2, recombinant mannan-binding lectin (UniProt P11226 21-248); assay: affinity chromatography on rMBL-coupled beads
T2 construct: Oligomeric collectin; also called rMBL; MBL
T2 sequence (P11226 21-248 limits assumed): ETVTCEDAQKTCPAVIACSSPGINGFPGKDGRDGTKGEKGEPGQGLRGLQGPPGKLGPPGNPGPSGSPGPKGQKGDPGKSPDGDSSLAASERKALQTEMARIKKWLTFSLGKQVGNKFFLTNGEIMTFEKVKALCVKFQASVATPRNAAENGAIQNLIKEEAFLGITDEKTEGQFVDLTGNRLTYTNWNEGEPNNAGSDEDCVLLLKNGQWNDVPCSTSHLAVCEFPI

T1 sequence (P02769 25-607 limits assumed): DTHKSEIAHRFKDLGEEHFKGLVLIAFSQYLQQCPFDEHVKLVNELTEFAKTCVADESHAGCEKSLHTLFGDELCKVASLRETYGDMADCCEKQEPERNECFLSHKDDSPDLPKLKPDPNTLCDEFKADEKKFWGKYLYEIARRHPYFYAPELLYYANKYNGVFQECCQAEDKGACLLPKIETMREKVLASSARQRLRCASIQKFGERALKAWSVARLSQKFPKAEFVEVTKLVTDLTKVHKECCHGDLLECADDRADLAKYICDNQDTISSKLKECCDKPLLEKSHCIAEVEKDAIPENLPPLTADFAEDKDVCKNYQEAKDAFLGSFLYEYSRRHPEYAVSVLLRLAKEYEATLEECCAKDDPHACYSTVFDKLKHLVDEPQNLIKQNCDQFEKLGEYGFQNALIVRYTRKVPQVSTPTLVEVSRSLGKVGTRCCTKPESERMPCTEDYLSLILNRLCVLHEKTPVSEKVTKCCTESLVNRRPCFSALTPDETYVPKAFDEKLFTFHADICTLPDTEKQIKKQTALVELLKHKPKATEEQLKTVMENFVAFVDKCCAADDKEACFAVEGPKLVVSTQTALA

binding result (BSA)	binding result [1]	Binder
no binding		recombinant MAp44 (mannan-binding lectin-associated protein of 44 kDa) (other, Made by transient expression of the MAp44 cDNA (imaGenes clone IRAKp961F1682Q) in 293F cells and purified on rMBL-coupled beads; also called rMAp44; rMAP44) HTVELNNMFGQIQSPGYPDSYPSDSEVTWNITVPDGFRIKLYFMHFNLESSYLCEYDYVKVETEDQVLATFCGRETTDTEQTPGQEVVLSPGSFMSITFRSDFSNEERFTGFDAHYMAVDVDECKEREDEELSCDHYCHNYIGGYYCSCRFGYILHTDNRTCRVECSDNLFTQRTGVITSPDFPNPYPKSSECLYTIELEEGFMVNLQFEDIFDIEDHPEVPCPYDYIKIKVGPKVLGPFCGEKAPEPISTQSHSVLILFHSDNSGENRGWRLSYRAAGNECPELQPPVHGKIEPSQAKYFFKDQVLVSCDTGYKVLKDNVEMDTFQIECLKDGTWSNKIPTCKKNEIDLESELKSEQVTE
	binds	recombinant MAp19 (other, UniProt O00187-2 16-185, looked up, also called rMAp19; rMAP19) TPLGPKWPEPVFGRLASPGFPGEYANDQERRWTLTAPPGYRLRLYFTHFDLELSHLCEYDFVKLSSGAKVLATLCGQESTDTERAPGKDTFYSLGSSLDITFRSDYSNEKPFTGFEAFYAAEDIDECQVAPGEAPTCDHHCHNHLGGFYCSCRAGYVLHRNKRTCSEQSL

Source: patent US20120122107A1 (AARHUS UNIVERSITET, published 2012)
